Target: Blinkin (UniProt Q8NG31)
Assay: GST pull-down from mitotic lysate
Details: sites Y207

binding against the reference (reference: GST-Bub3 WT with His-PKM2, no PEP)	binding against the reference (reference: GST-Bub3 WT, PEP, no His-PKM2)	binding against the reference (reference: GST-Bub3 WT without His-PKM2)	Substance
stronger	stronger	–	Bub3 (from UniProt O43684) GST-Bub3 WT with His-PKM2 and PEP
–	–	stronger	Bub3 (from UniProt O43684) GST-Bub3 WT incubated with His-PKM2

From article PMC3955203
